Read-outs that look alike come from different tables or passages of the source. Square brackets hold non-standard residues; d marks the D form. Ends that are not written are not given here. pS = N[C@@H](COP(=O)(O)O)C(=O)O
Assays:
[1] = 3P motif versus 2P motif; cited from earlier work
[2] = tested on: bone specific gravity (femurs and tibias); assay: Bone specific gravity in growing rats fed a high sucrose diet; format: in vivo, Sprague-Dawley rats; settings: high sucrose diet for 5 weeks, 6.25 or 3.125 mmol/kg of diet, both groups
Text: A high sucrose diet is associated with a decrease in bone specific gravity in growing rats (reflecting reduced calcium and phosphorous content). See J. Nutr. 128:1807-1810 (1998). This decrease in bone density is reversed or prevented by carbamoyl phosphate supplementation. Sprague-Dawley rats were fed a high sucrose diet for 5 weeks, supplemented with carbarnoyl phosphate at either 6.25 or 3.125 mmol/kg of diet. […] Thus, carbamoyl phosphate modifies the effect of a high sucrose diet on bone growth.

[3] = cited from earlier work
[4] = calcium binding, human β-CN variants by number of phosphorylated Ser residues, calculated from published binding studies, read-out: Average dissociation Constant

In the case of “3P variant: Reynolds (WO 98/40406) 3P variant having the sequence motif SerP-SerP-SerP-Glu-Glu (SEQ ID NO: 1) ([pS][pS][pS]EE)”, the “calcium and phosphate binding strength relative to 2P synthetic homologues having the motif SerP-SerP-Glu-Glu” value [1] is given as 2.5 times.

In the case of `NC(=O)OP(=O)(O)O` [carbamoyl phosphate], the “specific gravities of femurs and tibias versus control rats receiving standard lab chow” value [2] is reported as “not significantly different” and the “specific gravities of femurs and tibias versus rats on the same diet without carbamoyl phosphate” value [2] is reported as “significantly higher”.

B1: bovine β-CN: Bovine beta-casein (protein, UniProt P02666 16-224, looked up)
Beta-casein: RELEELNVPGEIVESLSSSEESITRINKKIEKFQSEEQQQTEDELQDKIHPFAQTQSLVYPFPGPIPNSLPQNIPPLTQTPVVVPPFLQPEVMGVSKVKEAMAPKHKEMPFPKYPVEPFTESQSLTLTDVENLHLPLPLLQSWMHQPHQPLPPTVMFPPQSVLSLSQSKVLPVPQKAVPYPQRDMPIQAFLLYQEPVLGPVRGPFPIIV
In the case of B1, the Kd ([3]; bovine β-CN, read-out: calcium dissociation constant) is listed as 650 µM.

B2: 4P: Human β-CN variant with four SerP residues, all three Ser in the target sequence phosphorylated (protein, UniProt P05814 16-226, looked up)
Beta-casein: RETIESLSSSEESITEYKQKVEKVKHEDQQQGEDEHQDKIYPSFQPQPLIYPFVEPIPYGFLPQNILPLAQPAVVLPVPQPEIMEVPKAKDTVYTKGRVMPVLKSPTIPFFDPQIPKLTDLENLHLPLPLLQPLMQQVPQPIPQTLALPPQPLWSVPQPKVLPIPQQVVPYPQRAVPVQALLLNQELLLNPTHQIYPVTQPLAPVHNPISV
modifications: four phosphoserines
For B2, the Kd [3, 4] is given as 810 µM.

B3: 1P: Human β-CN variant with one phosphorylated Ser residue (protein, UniProt P05814 16-226, looked up)
Beta-casein: RETIESLSSSEESITEYKQKVEKVKHEDQQQGEDEHQDKIYPSFQPQPLIYPFVEPIPYGFLPQNILPLAQPAVVLPVPQPEIMEVPKAKDTVYTKGRVMPVLKSPTIPFFDPQIPKLTDLENLHLPLPLLQPLMQQVPQPIPQTLALPPQPLWSVPQPKVLPIPQQVVPYPQRAVPVQALLLNQELLLNPTHQIYPVTQPLAPVHNPISV
modifications: one phosphoserine
notes: Human β-CN variant with one phosphorylated Ser residue
In the case of B3, the Kd [3, 4] is given as 1170 µM.

B4: 3P: Human β-CN variant with three phosphorylated Ser residues (protein, UniProt P05814 16-226, looked up)
Beta-casein: RETIESLSSSEESITEYKQKVEKVKHEDQQQGEDEHQDKIYPSFQPQPLIYPFVEPIPYGFLPQNILPLAQPAVVLPVPQPEIMEVPKAKDTVYTKGRVMPVLKSPTIPFFDPQIPKLTDLENLHLPLPLLQPLMQQVPQPIPQTLALPPQPLWSVPQPKVLPIPQQVVPYPQRAVPVQALLLNQELLLNPTHQIYPVTQPLAPVHNPISV
modifications: three phosphoserines
notes: Human β-CN variant with three phosphorylated Ser residues
For B4, the Kd [3, 4] is listed as 860 µM.

B5: 5P: Human β-CN variant with five phosphorylated Ser residues (protein, UniProt P05814 16-226, looked up)
Beta-casein: RETIESLSSSEESITEYKQKVEKVKHEDQQQGEDEHQDKIYPSFQPQPLIYPFVEPIPYGFLPQNILPLAQPAVVLPVPQPEIMEVPKAKDTVYTKGRVMPVLKSPTIPFFDPQIPKLTDLENLHLPLPLLQPLMQQVPQPIPQTLALPPQPLWSVPQPKVLPIPQQVVPYPQRAVPVQALLLNQELLLNPTHQIYPVTQPLAPVHNPISV
modifications: five phosphoserines
notes: Human β-CN variant with five phosphorylated Ser residues
In the case of B5, the Kd [3, 4] is listed as 420 µM.

B6: 2P: Human β-CN variant with two SerP residues, only two of three Ser in the target sequence phosphorylated (protein, UniProt P05814 16-226, looked up)
Beta-casein: RETIESLSSSEESITEYKQKVEKVKHEDQQQGEDEHQDKIYPSFQPQPLIYPFVEPIPYGFLPQNILPLAQPAVVLPVPQPEIMEVPKAKDTVYTKGRVMPVLKSPTIPFFDPQIPKLTDLENLHLPLPLLQPLMQQVPQPIPQTLALPPQPLWSVPQPKVLPIPQQVVPYPQRAVPVQALLLNQELLLNPTHQIYPVTQPLAPVHNPISV
modifications: two phosphoserines
In the case of B6, the Kd [3, 4] is listed as 1210 µM.
